B1: SPOPL (parent)
chain: YTGRAPNLDKMADNLLAAADKYAL
B2: CDKL4 (parent)
chain: AVKKFVESEDDPVVKKIALREIRM

Variants of: B1
Experiment: protein stability index of a GFP-peptide fusion (GPS, HEK-293T) (PSI 1-6); higher = more stable
Conditions: c terminus: a fixed tail appended
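Further: lentivirally expressed fusions sorted by FACS into six bins by GFP to DsRed ratio, PSI derived from sequencing read proportions per bin multiplied by bin number.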

Protein stability index, by site and new letter:
K10: F 1.68; E 2.23; Y 1.61; L 1.89; V 1.75; M 2.41; H 1.97; A 1.81; P 2.42; C 1.35; I 1.49; N 2.6; S 2.83; Q 1.75; R 1.43; G 2.25; T 1.75; D 1.91
G3: T 1.94; H 2.5; F 1.93; L 2.11; W 2.88; N 2.83; C 1.64; Y 2.82; M 2.68; E 2.94; Q 2.7; R 2.29; V 2.62; P 2.14; S 2.1; D 3.99; A 2.17; I 1.86; K 2.18
N14: R 2.39; A 1.69; G 2.05; M 2.37; K 1.73; V 2.43; F 1.84; Q 2.01; T 1.45; H 1.94; Y 1.86; I 1.85; W 1.45; E 2.16; D 2.25; S 2.38; P 2.2
T2: H 2.4; K 2.49; E 3.81; Q 2.29; V 2.97; D 3.75; Y 2.15; P 2.75; S 2.75; N 2.93; I 1.98; G 2.79; W 2.01; M 2.24; F 2.47; L 2.76; A 1.32; R 2.43
A5: Q 2.48; H 1.47; K 2.01; C 1.87; Y 1.41; E 3.58; S 2.33; P 2; W 4.42; I 1.58; T 2.42; M 1.51; L 1.77; F 2.31; G 1.93; V 1.78; R 1.74; N 3; D 3.19
L16: S 1.84; E 3.22; Q 2.73; K 3.18; A 2.24; V 2.2; G 2.94; N 2.22; H 2.97; F 1.22; T 3.25; R 2.65; P 2.32; M 2.37; C 1.59; Y 2.06; D 3.83; I 2.33
A19: I 2.76; E 2.33; N 2.49; G 2.23; H 2.24; K 1.64; F 1.5; M 2.22; P 2.7; D 2.76
A17: G 2.79; R 2.05; C 2.28; H 2.08; I 1.58; L 2.34; T 2.55; S 2.27; P 1.95; N 2.44; Y 1.62; Q 2.33; K 2.28; V 2; D 2.7; M 1.4; E 2.98; F 2.04
A12: Y 1.77; S 2.2; E 2.05; K 1.97; R 1.56; Q 2.07; G 2.36; W 1.32; F 1.58; I 2.87; P 2.54; M 2.64; H 2.33; N 2.88; T 2.97; L 1.53; C 2.56; D 2.92
D13: K 1.68; L 1.81; V 1.73; C 2.17; S 2.04; H 1.75; R 2.66; I 2.42; G 3.29; T 1.91; A 1.34; P 2.2; F 1.87; N 2.46; M 2.12; Q 1.91
A18: H 1.96; G 2.61; P 2.18; I 1.42; N 2.01; V 2.31; R 1.56; E 2.42; L 2.7; Y 2.25; M 1.9; Q 3.07; K 1.77; T 1.99; C 1.51; F 1.77; S 2.18; D 2.62; W 2.62
R4: K 2.41; A 2.38; S 2.77; T 1.84; F 2.12; Q 2.86; I 1.96; H 2.04; M 1.69; V 1.88; Y 2.02; D 3; L 3.6; G 2.74; N 2.09; E 3.04; C 2.31; P 2.75
P6: I 1.85; K 1.43; M 2.2; Q 2.19; D 2.31; N 2.49; H 1.09; R 2.44; Y 1.75; F 2.09; V 2.11; C 1.65; W 5; G 1.68; E 2.82; T 2.16; A 1.88; S 2.16
Y1: N 3.81; G 4.11; H 3.8; P 3.65; L 2.63; T 3.37; K 3.61; V 1.76; E 4.07; C 3.08; I 2.16; D 4.63; Q 4.13; M 3.06; A 2.15; W 2.94
D9: P 2.36; I 1.37; W 2.67; M 2.23; A 2.12; K 2.34; V 3.1; R 1.2; F 3.79; S 1.78; N 1.65; Q 2.84; C 1.99; T 1.85; E 2.24; H 2.17
N7: K 1.68; F 3.09; Y 1.27; I 1.81; Q 2.39; A 1.98; V 1.7; H 1.68; C 1.86; R 1.48; T 2.06; G 1.89; S 1.65; W 1.84; D 2.34; E 1.99
M11: S 2.62; L 2.44; I 2.32; Q 2.34; K 2.15; H 2.47; T 2.62; F 1.73; Y 1.31; E 2.56; C 1.55; R 2.05; V 3.05; D 2.42; P 2.56; W 2.21; G 1.62; A 2.02; N 2.43
L15: K 3.64; T 2.32; I 2.25; R 2.43; P 2.43; W 1.93; Q 2.96; V 2.14; E 2.92; C 2.87; N 2.74; D 2.83; Y 1.98; F 2.23; M 2.19; G 2.35; H 2.38; S 3.6
L8: D 3; P 3.29; Q 2.58; T 2.55; M 1.8; G 2.81; V 3.88; C 2.28; Y 1.36; F 1.9; K 2.16; S 1.83; I 1.85; N 2.94; H 2.38; R 2.93

Variants of: B2
Experiment: as above
Conditions: c terminus: a fixed tail appended

Protein stability index, by site and new letter:
M24: W 2.48; Q 3.92; Y 3.86; V 3.36; R 3.23; T 3.15; S 3.71
